± gives the uncertainty stated by the source.
B1: Gamma-crystallin S, residues 96 to 176; numbered along this chain, P22914 (parent)
chain: IQIFEKGDFSGQMYETTEDCPSIMEQFHMREIHSCKVLEGVWIFYELPNYRGRQYLLDKKEYRKPIDWGAASPAVQSFRRI

Variants of: B1
Assay: abundance fitness (aPCA) (normalised: wild type 0, dead -1); higher = more abundant; growth selection in yeast, the domain comes from the species named
Conditions: Homo sapiens
In the case of IQIFEKGDFSGQMYETTEDCPSIMEQFHMREIHSCKVLEGVWIFYELPNYRGRQYLLDKKEYRKPIDRGAASPAVQSFRRI [W68R], the abundance fitness is reported as -0.169 ± 0.11.
IQIFEKGDFSGQMYETTEDCPSIMEQFHMREIHSCKVLEGVWIFYELPNYRGRQYLLDKKEYRKPIDKGAASPAVQSFRRI [W68K] showed an abundance fitness of -0.067 ± 0.15.
IQIFEKGDFSGQMYETTEDCPSIMEQFHMREIHSCKVLEGVWIFYELPNYRGRQYLLDKKEYRKPIDTGAASPAVQSFRRI [W68T] showed an abundance fitness of 0.089 ± 0.2.
For IQIFEKGDFSGQMYETTEDCPSIMEQFHMREIHSCKVLEGVWIFYELPNYRGRQYLLDKKEYRKPIDGGAASPAVQSFRRI [W68G], the abundance fitness was -0.139 ± 0.11.
IQIFEKGDFSGQMYETTEDCPSIMEQFHMREIHSCKVLEGVWIFYELPNYRGRQYLLDKKEYRKPIDLGAASPAVQSFRRI [W68L] showed an abundance fitness of -0.044 ± 0.17.
IQIFEKGDFSGQMYETTEDCPSIMEQFHMREIHSCKVLEGVWIFYELPNYRGRQYLLDKKEYRKPIDYGAASPAVQSFRRI [W68Y] gave an abundance fitness of -0.425 ± 0.45.
IQIFEKGDFSGQMYETTEDCPSIMEQFHMREIHSCKVLEGVWIFYELPNYRGRQYLLDKKEYRKPIDSGAASPAVQSFRRI [W68S] showed an abundance fitness of 0.006 ± 0.085.
With IQIFEKGDFSGQMYETTEDCPSIMEQFHMREIHSCKVLEGVWIFYELPNYRGRQYLLDKKEYRKPIDMGAASPAVQSFRRI [W68M] the abundance fitness was 0.131 ± 0.14.
IQIFEKGDFSGQMYETTEDCPSIMEQFHMREIHSCKVLEGVWIFYELPNYRGRQYLLDKKEYRKPIDPGAASPAVQSFRRI [W68P] showed an abundance fitness of -0.289 ± 0.15.
Work on IQIFEKGDFSGQMYETTEDCPSIMEQFHMREIHSCKVLEGVWIFYELPNYRGRQYLLDKKEYRKPIDWPAASPAVQSFRRI [G69P] yielded an abundance fitness of -0.294 ± 0.18.
For IQIFEKGDFSGQMYETTEDCPSIMEQFHMREIHSCKVLEGVWIFYELPNYRGRQYLLDKKEYRKPIDWMAASPAVQSFRRI [G69M], the abundance fitness was 0.052 ± 0.23.
For IQIFEKGDFSGQMYETTEDCPSIMEQFHMREIHSCKVLEGVWIFYELPNYRGRQYLLDKKEYRKPIDWVAASPAVQSFRRI [G69V], the abundance fitness was -0.05 ± 0.12.
With IQIFEKGDFSGQMYETTEDCPSIMEQFHMREIHSCKVLEGVWIFYELPNYRGRQYLLDKKEYRKPIDWEAASPAVQSFRRI [G69E] the abundance fitness was 0.006 ± 0.21.
For IQIFEKGDFSGQMYETTEDCPSIMEQFHMREIHSCKVLEGVWIFYELPNYRGRQYLLDKKEYRKPIDWQAASPAVQSFRRI [G69Q], the abundance fitness was -0.166 ± 0.19.
With IQIFEKGDFSGQMYETTEDCPSIMEQFHMREIHSCKVLEGVWIFYELPNYRGRQYLLDKKEYRKPIDWCAASPAVQSFRRI [G69C] the abundance fitness was -0.242 ± 0.21.
Variant IQIFEKGDFSGQMYETTEDCPSIMEQFHMREIHSCKVLEGVWIFYELPNYRGRQYLLDKKEYRKPIDWWAASPAVQSFRRI [G69W] has an abundance fitness of -0.018 ± 0.12.
In the case of IQIFEKGDFSGQMYETTEDCPSIMEQFHMREIHSCKVLEGVWIFYELPNYRGRQYLLDKKEYRKPIDWKAASPAVQSFRRI [G69K], the abundance fitness is reported as -0.127 ± 0.18.
For IQIFEKGDFSGQMYETTEDCPSIMEQFHMREIHSCKVLEGVWIFYELPNYRGRQYLLDKKEYRKPIDWDAASPAVQSFRRI [G69D], the abundance fitness was -0.155 ± 0.13.
In the case of IQIFEKGDFSGQMYETTEDCPSIMEQFHMREIHSCKVLEGVWIFYELPNYRGRQYLLDKKEYRKPIDWSAASPAVQSFRRI [G69S], the abundance fitness is reported as 0.071 ± 0.1.
Work on IQIFEKGDFSGQMYETTEDCPSIMEQFHMREIHSCKVLEGVWIFYELPNYRGRQYLLDKKEYRKPIDWLAASPAVQSFRRI [G69L] yielded an abundance fitness of 0.022 ± 0.13.
With IQIFEKGDFSGQMYETTEDCPSIMEQFHMREIHSCKVLEGVWIFYELPNYRGRQYLLDKKEYRKPIDWRAASPAVQSFRRI [G69R] the abundance fitness was 0.012 ± 0.11.
Variant IQIFEKGDFSGQMYETTEDCPSIMEQFHMREIHSCKVLEGVWIFYELPNYRGRQYLLDKKEYRKPIDWIAASPAVQSFRRI [G69I] has an abundance fitness of 0.09 ± 0.22.
With IQIFEKGDFSGQMYETTEDCPSIMEQFHMREIHSCKVLEGVWIFYELPNYRGRQYLLDKKEYRKPIDWGQASPAVQSFRRI [A70Q] the abundance fitness was -0.057 ± 0.14.
Variant IQIFEKGDFSGQMYETTEDCPSIMEQFHMREIHSCKVLEGVWIFYELPNYRGRQYLLDKKEYRKPIDWGIASPAVQSFRRI [A70I] has an abundance fitness of 0.111 ± 0.18.
IQIFEKGDFSGQMYETTEDCPSIMEQFHMREIHSCKVLEGVWIFYELPNYRGRQYLLDKKEYRKPIDWGFASPAVQSFRRI [A70F] gave an abundance fitness of -0.025 ± 0.18.
With IQIFEKGDFSGQMYETTEDCPSIMEQFHMREIHSCKVLEGVWIFYELPNYRGRQYLLDKKEYRKPIDWGDASPAVQSFRRI [A70D] the abundance fitness was -0.017 ± 0.16.
Variant IQIFEKGDFSGQMYETTEDCPSIMEQFHMREIHSCKVLEGVWIFYELPNYRGRQYLLDKKEYRKPIDWGHASPAVQSFRRI [A70H] has an abundance fitness of 0.32 ± 0.27.
With IQIFEKGDFSGQMYETTEDCPSIMEQFHMREIHSCKVLEGVWIFYELPNYRGRQYLLDKKEYRKPIDWGKASPAVQSFRRI [A70K] the abundance fitness was 0.169 ± 0.37.
Variant IQIFEKGDFSGQMYETTEDCPSIMEQFHMREIHSCKVLEGVWIFYELPNYRGRQYLLDKKEYRKPIDWGMASPAVQSFRRI [A70M] has an abundance fitness of -0.023 ± 0.13.
In the case of IQIFEKGDFSGQMYETTEDCPSIMEQFHMREIHSCKVLEGVWIFYELPNYRGRQYLLDKKEYRKPIDWGEASPAVQSFRRI [A70E], the abundance fitness is reported as -0.004 ± 0.093.
For IQIFEKGDFSGQMYETTEDCPSIMEQFHMREIHSCKVLEGVWIFYELPNYRGRQYLLDKKEYRKPIDWGTASPAVQSFRRI [A70T], the abundance fitness was -0.037 ± 0.2.
With IQIFEKGDFSGQMYETTEDCPSIMEQFHMREIHSCKVLEGVWIFYELPNYRGRQYLLDKKEYRKPIDWGRASPAVQSFRRI [A70R] the abundance fitness was 0.104 ± 0.093.
IQIFEKGDFSGQMYETTEDCPSIMEQFHMREIHSCKVLEGVWIFYELPNYRGRQYLLDKKEYRKPIDWGGASPAVQSFRRI [A70G] gave an abundance fitness of 0.108 ± 0.099.
Variant IQIFEKGDFSGQMYETTEDCPSIMEQFHMREIHSCKVLEGVWIFYELPNYRGRQYLLDKKEYRKPIDWGPASPAVQSFRRI [A70P] has an abundance fitness of 0.042 ± 0.3.
